Laboratory results as given in US8535684.

Molecular target: Nedd4 on the surface of virus-infected MDCK cells (canine (MDCK cells))
Assay: cell-based or functional assay

Substance: Human Nedd4 antibody Ab101AP
- inhibition of viral replication (ADCC mediated, in vitro): 80 % inhibition

Substance: Human Nedd4 antibody Ab27979
- inhibition of viral replication (ADCC mediated, in vitro): 80 % inhibition
